From patent publication US12692513B2, “Prostate neoantigens and their uses” (Janssen Biotech, Inc., priority 2020, dated 2026)

Columns and labels:
[1] = system: CD8+ T cells in PBMCs from patients with metastatic castrate-resistant prostate cancer; test: Patient PBMC restimulation assay (TNFα+IFNγ+ CD8+ T cells); format: cell-based, human; conditions: 9mer peptide
Description: PBMCs from human patients with metastatic castrate-resistant prostate cancer were thawed using media (RPMI 1640 supplemented with Glutamax, 10% HI FBS, and IX Sodium Pyruvate). Cells were counted and plated in a 96 well round bottom microplate at a concentration of 250,000 viable cells per well. Lyophilized peptides were solubilized in 100% DMSO and diluted in media to 10 μg/mL. Neoantigen peptides were added in equal volume to PBMCs for a final concentration of 5 μg/mL. CEF Peptide Pool “Plus” (Cellular Technologies, Ltd.) was utilized as a positive control and DMSO at the same final concentration as the experimental peptides was utilized as a negative control. Human IL-15 (Peprotech) was added to all wells at final concentration of 10 ng/mL.
Plates were incubated at 37° C. (5% CO2) for a total of 13 days. Media was refreshed every 2 days with IL-15 (10 ng/mL final concentration) and IL-2 (R&D systems, 10 IU/mL final concentration). On day 12, PBMCs were re-stimulated with identical experimental peptides or controls, at same concentration as peptide stimulation on Day 1. After 1-hour incubation, protein Inhibitor Cocktail (eBioscience) was added to every well and plate was incubated overnight.
On day 13, cells were stained for intracellular flow cytometry analysis. The cells were washed with PBS and stained with Live/Dead Fixable Aqua Dead Cell stain (ThermoFisher). Following the live/dead stain, cells were blocked using Biotin-Free Fc Receptor Blocker (Accurate Chemical & Scientific Corp). Extracellular cellular flow panel (1 μL/antibody per well in 50 μL) consisted of CD3 PerCP-Cy5.5 (Biolegend), CD4 BV421 (Biolegend), and CD8 APC-Cy7 (Biolegend). After extracellular staining, cells were fixed using Foxp3/Transcription Factor Staining Buffer Set (eBioscience) and stained for intracellular proteins (1:50 dilution) using TNFα FITC (R&D Systems) and IFNγ BV785 (Biolegend). Cells were washed and resuspended in stain buffer and analyzed using a BD Celesta flow cytometer.
Flow cytometry cell staining analysis was completed using Flow Jo v10. Cells were gated on live, singlet, CD3+ cells. The CD8+ T cells were analyzed for TNFα/IFNγ expression and the frequency of double positive TNFα/IFNγ CD8+ T cells was recorded. Responses were assessed to be positive when the frequency of double positive TNFα/IFNγ CD8+ T cells due to stimulation with an experimental peptide was increased greater than or equal to 2-fold over the DMSO only negative control for that patient. Peptides were analyzed in 1 to 7 patient samples.
The 9 mer fragments shown in Table 13 were assessed for their ability to activate T cells using the Patient PBMC restimulation assay described in Example 1 using TNFα and IFNγ production by CD8^+ T cells as a readout. Self-antigens shown in Table 15 were also used in the assays. […] PBMCs from ten patients were evaluated.

HLA-A*02:01 = HLA-A*02:01 (Homo sapiens, UniProt P04439, D140Y/D185E/D98H/E176V/E277Q/G131W/G231S/I119V/I121R/I166T/I218V/L300P/L318F/N151K/N90K/P208A/P217A/Q86G/Q94H/R138H/R169H/T345S); test: In vitro binding to class I MHC (UV peptide exchange, HLA class I ELISA); conditions: 100% = same binding as positive control peptide
Description: (§1) The 9 mer peptides identified by bioinformatics analysis were analyzed for their binding propensities to 6 common HLA class I alleles (HLA-A*01:01, A*02:01, A*03:01, A*24:02, B*07:02, B*08:01). The principle of the method is briefly described below and consists of two parts, one involving exchange of peptide with a positive control induced by Ultraviolet (UV) radiation, and the second is an enzyme immunoassay to detect stable HLA-peptide and empty HLA complexes. HLA-bound peptides are critical for the stability of the HLA complex. A conditional HLA class I complex was stabilized by an UV-labile peptide utilizing a different peptide (Pos) for each HLA (Pos: HLA-A*01:01: […](SEQ ID NO: 409), HLA-A*02:01: […] (SEQ ID NO: 410), HLA-A*03:01: […] (SEQ ID NO: 411), HLA-A*24:02: […] (SEQ ID NO: 412), HLA-B*07:02: […] (SEQ ID NO: 413), HLA-B*08:01: […] (SEQ ID NO: 414), which could be cleaved by UV irradiation when bound to the HLA molecule. Upon cleavage, the resulting peptide fragments dissociated from the HLA class I complex since their length was insufficient to bind stably to HLA. Under the conditions in which peptide cleavage was performed (neutral pH, on melting ice), the peptide-free HLA complex remained stable.
(§2) The exchange efficiency between the peptide of interest and Pos was analyzed using an HLA class I ELISA. The combined technologies allowed the identification of ligands for an HLA molecule of interest which are potentially immunogenic.
(§3) Exchange control peptide Pos was a high affinity binder to the relevant HLA class I allele while exchange control peptide Neg was a non-binder. The UV control represented UV-irradiation of conditional HLA class I complex in the absence of a rescue peptide.
(§4) The HLA class I ELISA is an enzyme immunoassay based on the detection of beta2-microglobulin (B2M) of (peptide-stabilized) HLA class I complexes. To this end streptavidin was bound onto polystyrene microtiter wells. After washing and blocking, HLA complex present in exchange reaction mixtures or ELISA controls was captured by the streptavidin on the microtiter plate via its biotinylated heavy chain. Non-bound material was removed by washing. Subsequently, horseradish peroxidase (HRP)-conjugated antibody to human B2M was added. The HRP-conjugated antibody binds only to an intact HLA complex present in the microtiter well because unsuccessful peptide exchange results in disintegration of the original UV-sensitive HLA complex upon UV illumination. In the latter case B2M was removed during the washing step. After removal of non-bound HRP conjugate by washing, a substrate solution was added to the wells. A colored product formed in proportion to the amount of intact HLA complex present in the samples. After the reaction was terminated by the addition of a stop solution, absorbance was measured in a microtiter plate reader. The absorbance was normalized to the absorbance of an exchange control peptide (represents 100%). Suboptimal HLA binding of peptides with a moderate to low affinity for HLA class I molecules can also be detected by this ELISA technique (Rodenko, B et al. (2006) Nature Protocols 1: 1120-32).
(§5) Peptides that had 10% or greater exchange efficiency in one of the 6 HLA alleles were considered for further immunogenicity testing and analysis.
(§6) Binding of select neoepitopes to HLA-A*01:01, HLA-A*02:01, HLA-A*03:01, HLA-A*24:02, HLA-B*07:02 and HLA-B*08:01 was evaluated using the assay described in Example 1. […] As a criterion for further evaluation, peptides with an exchange rate of at least 10% with the corresponding Pos peptide for at least one of the 6 HLA alleles that we considered for further evaluation. The exchange rates with the allele specific Pos peptides, of the 24 neoantigens so identified are summarized below in Table 17. Higher percentages correspond to stronger binding to the HLA allele.

HLA-A*01:01 = HLA-A*01:01 (Homo sapiens, UniProt P04439, A114D/A174V/A182V/D101N/D185E/E176A/E190D/L180R/Q94H/R68K/S129P/T187R/V100A/V91M/W191G); test: as above; conditions: 100% = same binding as positive control peptide
Description: as §1, §2, §3, §4, §5, §6

HLA-B*08:01 = HLA-B*08:01 (Homo sapiens, UniProt P01889, A93T/A95T/D138N/E176V/E187T/K202T/Q94N/R180D/S35A/V36M/Y33D/Y91F); test: as above; conditions: 100% = same binding as positive control peptide
Description: as §1, §2, §3, §4, §5, §6

HLA-B*07:02 = HLA-B*07:02 (Homo sapiens, UniProt P01889); test: as above; conditions: 100% = same binding as positive control peptide
Description: as §1, §2, §3, §4, §5, §6

HLA-A*24:02 = HLA-A*24:02 (Homo sapiens, UniProt P04439, D101N/D140Y/D185E/E176V/E190D/F33S/G103R/G107R/I119L/I121M/I306V/K335N/L105A/L180Q/L300P/N151K/N90K/Q86E/Q94H/R106L/R138H/R89G/T104I/T345S/V100E/W191G/Y123F); test: as above; conditions: 100% = same binding as positive control peptide
Description: as §1, §2, §3, §4, §5, §6

HLA-A*03:01 = HLA-A*03:01 (Homo sapiens, UniProt P04439); test: as above; conditions: 100% = same binding as positive control peptide
Description: as §1, §2, §3, §4, §5, §6

Substance: P98: peptide used for stimulation of PBMC samples (FIG. 5D); sequence in a table not shown (DDRNTFDIVWWCPMSRLRLALTVPPSTTTTCVTVPAWAA; listed as Homo sapiens) [Neoantigen P98]
- Maximum fold change over negative control ([1]; TNFα+IFNγ+CD8+ T cells, highest across PBMC donors): 14.93
- Maximum frequency of TNFα+IFNγ+CD8+ T cells (Percent) ([1]; greatest frequency among all tested PBMC donors): 1.000%
- Exchange rate with allele specific Pos peptide, HLA-A*02:01 (HLA-A*02:01): 7.9%
- Exchange rate with allele specific Pos peptide, HLA-A*01:01 (HLA-A*01:01): 2.5%
- Exchange rate with allele specific Pos peptide, HLA-B*08:01 (HLA-B*08:01): 2.4%
- Exchange rate with allele specific Pos peptide, HLA-B*07:02 (HLA-B*07:02): 6.7%
- Exchange rate with allele specific Pos peptide, HLA-A*24:02 (HLA-A*24:02): −0.1%
- Exchange rate with allele specific Pos peptide, HLA-A*03:01 (HLA-A*03:01): 51.1%
